Experimental data reported in US7541156B1, “Method of identifying antinociceptive compounds using protease activated receptor-2” (priority 2000, dated 2009).
No end group written: not given here.

Legend:
[1] = system: cultured adult rat thoracic DRG neurons; experiment: CGRP release assay in cultured DRG neurons; type: cell-based; settings: 10 min pretreatment with peptide 10 μM, mean of wells, three experiments
Experimental: Cell Culture. Primary cultures of rat DRG neurons were prepared from male adult Sprague Dawley rats (200-250 gm). Following enzymatic treatment and dissociation, neurons were spun through a percoll cushion (Hofbauer et al. 1998) and were plated at a density of 10,000-20,000 neurons/well of a 48 well tissue culture plate. Cultures were maintained in DME+10% FCS supplemented with penicillin/streptomycin, 150 μM uridine and 50 μM 5-fluoro-2-deoxyuridine (Nguyen et al. 1999). NGF (murine, recombinant, 2.5S; Promega, Madison, Wis.) was used at 50 ng/ml. Neurons were treated for five days before release experiments or Calcium-imaging studies were performed.
CGRP release assay. Immunoreactive calcitonin gene-related peptide (IR-CGRP) release from DRG cultures was performed as described by Hingtgen et al. (1995). Briefly, neuron cultures were washed with Release Buffer (RB) (25 mM Hepes, pH 7.4, 135 mM NaCl, 3.5 mM KCl, 2.5 mM CaCl2, 1 mM MgCl2, 3.3 mM Glucose, 0.1% BSA, 1 μM phosphoamidon), and were incubated for 10 min at 37° C. in RB plus 0.1% ethanol (Capsaicin vehicle) to measure basal CGRP release. Fresh RB containing the appropriate concentration of activating peptide (AcPep) or control peptide (CoPep) was added for an additional 10 minutes. Peptide treatment was followed by a 10 minute incubation with an appropriate dose of Capsaicin or KCl. IR-CGRP released by neurons was measured by ELISA. Activating peptide and control peptide were prepared by standard solid phase synthesis procedures by the UTMB Core Protein Facility.
CGRP Quantification. CGRP was quantified in a standard sandwich ELISA. In brief, 96-well “U” bottom microtiter ELISA plates (Dynex, Chantilly, Va.) were coated with affinity purified polyclonal rabbit antibody to rat CGRP (Peninsula Labs, Belmont, Calif.) at 3 μg/ml in 0.125M borate buffered saline (pH 8.1) (100 μl/well). The plates were incubated overnight at 37° C. The next day, the plates were washed three times with saline containing 0.05% Tween-20. Purified rat CGRP (Peninsula Labs) was used at a previously standardized concentration range of 25-1 ng/ml in a four-fold dilution to generate a standard curve. An equal volume of the sample was added in duplicate to a seventy-five μl/well of Tween-PBS (pH 7.1) and the plates were incubated for two hours on a shaker at room temperature. The plates were washed 3 times with Tween-PBS and 100 μl/well (0.2 mg/ml; 1:500 dilution) of in-house biotinylated, rabbit anti rat CGRP IgG (Peninsula Labs) was applied and incubated for two hours at room temperature. After three washes 150 μl of 1:1000 diluted streptavidine-horseradish peroxidase conjugate (Zymed, San Fransisco, Calif.) was added to each well and the plates were incubated for 90 min at room temperature. One-hundred-fifty μl/well of the substrate ortho-phenylene diamine dihydrochloride (Sigma Chemicals, St. Louis, Mo.) 0.4 mg/ml in citrate buffer (pH 4.9) was added after plates were washed three more times. Forty μl/100 ml of 30% H2O2 was added fresh to the citrate buffer just before adding to the wells to activate the coloring reaction. The reaction was stopped with 5N H2SO4 (50 μl/well) and the plates were read at 490 nm in an automated ELISA reader (Bio-Tek Instruments, Inc., Winooski, VE). The OD values were plotted against the CGRP standard curve and CGRP immunoreactivity was quantified using the appropriate formula and expressed as nanogram/ml.
Statistics. Release data are presented as the mean± standard error of the mean (SEM) of wells from three separate experiments. To compare the effects of activating peptide and control peptide on subsequent evoked release, an overall test based on the analysis of variance was performed (ANOVA). […] Intraductal injection studies were analyzed using a repeated measure ANOVA and individual means were compared using a Newman-Keuls multiple comparison test. Significance levels were set at p<0.05. […]

[2] = system: pancreatic afferent neurons / spinal segments T8-T10; experiment: c-FOS expression in spinal cord segments after pancreatic intraductal injection; type: in vivo, rat; settings: peptide 100 μM intraductal, followed 30 min later by Capsaicin 0.5 mg/kg; 2.5 hours
Experimental: Intraductal (pancreatic duct) injection. To administer the necessary peptides directly into the rat pancreatic duct we followed a modified protocol, previously described by Kim et al. (1996). In brief, rats were anesthetized i.p. with nembutal sodium (Abbot Laboratories, Chicago, Ill.) (50 mg/kg body weight). The peritoneum was incised to expose the duodenum and the duodenal loop was pulled out. The pancreatic duct entering the duodenum was identified under dissecting microscope and a small niche was made into the duct with a 30-gauge needle. A polyethylene 10 tubing (0.61 mm outer diameter) (Becton Dickinson and Company, Franklin Lakes, N.J.) was guided into the duct and tied to secure its position. The common bile duct was ligated close to the liver to prevent entry of the injected substance into the liver. Similarly the duct was ligated near its entry into the duodenum. The position of the tube into the pancreatic duct was confirmed by freely flowing bile through the tubing. […] Thirty minutes later Capsaicin 0.5 mg/kg (total volume 500 μl) or vehicle (1×PBS, 10% ETOH, 1% Tween) was injected to half of the AcPep or CoPep injected rats. Three rats were included in each treatment group (n=3 for number of experiments). The tubing was carefully removed and bile flow from the liver into the duodenum was re-established. The abdominal cavity was closed with sutures. Rats were sacrificed 2.5 hrs after the initial injection.
C-fos staining. Rats were anesthetized with sodium pentobarbital (50 mg/kg i.p.) and perfused with 200 mls PBS followed by 500 mls ice-cold freshly prepared 4% paraformaldehyde in PBS. Spinal cord (level T5-T13) was removed, post-fixed in 4% paraformaldehyde for 18 hrs at 4° C. and placed in PBS (pH 7.4) containing 30% sucrose for 24 hrs at 4° C. Frozen sections (40 μm) were cut on a cryostat and stored as floating sections in PBS at 4° C. Every third section was stained for c-fos with a rabbit polyclonal serum, 1:1000 dilution, (c-fos, Ab-5, Oncogene Research Products) utilizing manufacturer's protocol. Antibody staining was visualized using a biotinylated secondary antisera and Vectastain ABC peroxidase kit with DAB as substrate. Sections were mounted on Superfrost Plus slides (VWR Scientific, West Chester, Pa.) and dehydrated. The number of c-FOS immunoreactive (IR) neurons were counted in 10 randomly chosen sections per segment under brightfield illumination and then averaged.
Statistics. Release data are presented as the mean± standard error of the mean (SEM) of wells from three separate experiments. […] Intraductal injection studies were analyzed using a repeated measure ANOVA and individual means were compared using a Newman-Keuls multiple comparison test. […]

mouse Par2 = target: T1, mouse Par2 (Mus musculus, UniProt P55086); settings: expressed in frog oocytes; cited from earlier work
T1 construct: host or cells: frog oocytes
T1 sequence (P55086 26-399): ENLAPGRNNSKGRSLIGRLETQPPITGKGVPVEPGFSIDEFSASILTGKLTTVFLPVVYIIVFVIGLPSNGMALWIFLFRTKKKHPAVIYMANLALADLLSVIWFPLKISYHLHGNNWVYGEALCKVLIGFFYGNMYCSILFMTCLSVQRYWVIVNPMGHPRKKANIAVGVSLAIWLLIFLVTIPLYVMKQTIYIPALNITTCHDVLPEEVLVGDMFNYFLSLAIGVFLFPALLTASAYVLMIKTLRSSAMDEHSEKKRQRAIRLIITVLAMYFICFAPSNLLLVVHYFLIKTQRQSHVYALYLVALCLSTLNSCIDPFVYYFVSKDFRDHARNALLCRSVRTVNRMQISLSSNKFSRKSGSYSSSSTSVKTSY

PAR-2 [3] = target: T2, PAR-2 (Rattus norvegicus, UniProt Q63645); experiment: Intracellular Ca2+ response of primary neuronal cultures; type: cell-based; settings: primary neuronal cultures of adult rat DRGs
T2 construct: assessing the response of primary neuronal cultures to trypsin and AcPep; endogenous in cells; host or cells: primary cultures of adult Sprague-Dawley rat DRG neurons
T2 sequence (Q63645 26-397): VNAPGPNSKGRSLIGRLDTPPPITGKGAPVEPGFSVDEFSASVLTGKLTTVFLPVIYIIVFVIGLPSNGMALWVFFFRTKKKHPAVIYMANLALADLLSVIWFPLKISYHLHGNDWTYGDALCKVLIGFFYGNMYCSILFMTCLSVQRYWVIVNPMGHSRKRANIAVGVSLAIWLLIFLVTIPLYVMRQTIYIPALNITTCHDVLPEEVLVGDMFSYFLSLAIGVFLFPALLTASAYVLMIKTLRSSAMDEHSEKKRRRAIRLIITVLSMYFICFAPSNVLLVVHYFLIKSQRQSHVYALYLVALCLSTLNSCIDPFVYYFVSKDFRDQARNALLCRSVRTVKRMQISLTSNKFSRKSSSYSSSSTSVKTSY
Source text: In the results which follow, it is shown that activated proteases can have direct effects on sensory neurons, mediated by specific receptors. PAR-1 and PAR-2 are present in rat DRGs (Young et al. 2000). The presence of one of these receptors, PAR-2, in sensory neurons is first confirmed by finding evidence of mRNA and protein expression in adult rat thoracic DRGs. The functional implications of PAR-2 expression are then examined by assessing the response of primary neuronal cultures to trypsin and AcPep. Both agonists increased intracellular Ca^2+ confirming previously reported findings that a functional PAR 2 receptor is present in adult rat DRGs (Steinhoff et al. 2000). Trypsin stimulates both PAR-1 and PAR-2 and therefore an increase in intracellular Ca^2+ can be caused by activation of the two different receptors. […] Therefore the increased intracellular Ca^2+ response to AcPep reflects specific PAR-2 mediated activation.
Cell Culture. Primary cultures of rat DRG neurons were prepared from male adult Sprague Dawley rats (200-250 gm). Following enzymatic treatment and dissociation, neurons were spun through a percoll cushion (Hofbauer et al. 1998) and were plated at a density of 10,000-20,000 neurons/well of a 48 well tissue culture plate. […]

PAR-2 [4] = target: T3, PAR-2 (Homo sapiens, UniProt P55085); settings: Blackhart et al. 1996; cited from earlier work
T3 sequence (P55085 26-397): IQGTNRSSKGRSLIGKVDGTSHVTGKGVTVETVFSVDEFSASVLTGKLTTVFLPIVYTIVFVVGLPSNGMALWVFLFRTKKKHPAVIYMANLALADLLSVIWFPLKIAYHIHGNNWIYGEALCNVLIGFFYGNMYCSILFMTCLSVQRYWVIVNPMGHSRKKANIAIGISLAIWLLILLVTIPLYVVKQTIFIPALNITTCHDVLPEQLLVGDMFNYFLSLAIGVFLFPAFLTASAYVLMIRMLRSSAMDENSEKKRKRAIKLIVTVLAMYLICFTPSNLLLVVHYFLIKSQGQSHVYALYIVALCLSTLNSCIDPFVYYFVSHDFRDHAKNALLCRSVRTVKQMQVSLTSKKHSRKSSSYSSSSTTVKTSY

PAR-1 = target: T4, PAR-1 (Homo sapiens, UniProt P25116); settings: Blackhart et al. 1996; cited from earlier work
T4 sequence (P25116 22-425): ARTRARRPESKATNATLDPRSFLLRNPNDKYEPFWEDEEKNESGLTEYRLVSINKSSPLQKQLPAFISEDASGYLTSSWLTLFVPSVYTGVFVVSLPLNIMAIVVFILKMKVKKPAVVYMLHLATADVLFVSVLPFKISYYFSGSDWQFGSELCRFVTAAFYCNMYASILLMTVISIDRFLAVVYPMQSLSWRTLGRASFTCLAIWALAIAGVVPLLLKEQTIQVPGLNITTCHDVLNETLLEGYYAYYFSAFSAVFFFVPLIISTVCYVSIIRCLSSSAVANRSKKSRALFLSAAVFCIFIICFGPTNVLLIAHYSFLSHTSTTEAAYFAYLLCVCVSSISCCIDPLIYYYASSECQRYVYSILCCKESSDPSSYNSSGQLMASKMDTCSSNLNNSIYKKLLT

[5] = target: T5, protease activated receptor-2 (PAR-2) of adult rat thoracic dorsal root ganglion neurons (rat, UniProt Q63645 37-397); experiment: cell-based or functional assay
T5 sequence (looked up): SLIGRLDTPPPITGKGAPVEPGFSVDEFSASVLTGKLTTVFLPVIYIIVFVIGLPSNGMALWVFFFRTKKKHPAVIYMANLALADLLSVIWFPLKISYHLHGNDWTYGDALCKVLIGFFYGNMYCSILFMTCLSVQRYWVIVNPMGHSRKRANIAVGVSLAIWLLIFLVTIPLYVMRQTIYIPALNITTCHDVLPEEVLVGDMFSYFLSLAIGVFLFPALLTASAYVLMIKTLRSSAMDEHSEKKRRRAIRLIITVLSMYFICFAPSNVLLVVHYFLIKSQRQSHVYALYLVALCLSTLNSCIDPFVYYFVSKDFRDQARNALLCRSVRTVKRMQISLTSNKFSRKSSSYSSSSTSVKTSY

RLGILS-amide (RLGILS-NH2) [CoPep]
CGRP release induced by Capsaicin (50 nM) ([1]; then Capsaicin 50 nM for 10 min in presence of peptide): 4.77 ng/mL
CGRP release induced by KCl (70 mM) ([1]; then KCl 70 mM for 10 min in presence of peptide): 1.8 ng/mL
Capsaicin-evoked c-FOS expression in segments T8-T10 [2]: as strong a stimulant as AcPep alone

thrombin
concentration without receptor activation (mouse Par2): > 100 nM

trypsin: serine protease that stimulates both PAR-1 and PAR-2
intracellular Ca2+ (PAR-2 [3]): increased
activation of PAR-2 (PAR-2 [4]): stimulates
activation of PAR-1 (PAR-1): stimulates
receptor activation, in words (mouse Par2): could be activated with nanomolar concentrations

B1: PAR-2 activating peptide (AcPep) (peptide)
peptide: SLIGRL
augmentation of Capsaicin-evoked CGRP release (multiple of the basal release), AcPep 10 µM [5]: ~2 fold
augmentation of KCl-evoked CGRP release (multiple of the basal release), AcPep 10 µM [5]: 1.5 fold
